Experimental data: paper PMC5700950

Biological target: C3d, the covalently bound activation product of complement C3, in mouse myocardium (mouse (endogenous in C57BL/6 heart)) (UniProt P01027)
Assay: ex vivo organ biodistribution (gamma counting); organs removed after imaging, weighed and gamma counted; heart to blood ratio of injected dose per gram

Sequence of UniProt P01027 (P01027 1002-1303): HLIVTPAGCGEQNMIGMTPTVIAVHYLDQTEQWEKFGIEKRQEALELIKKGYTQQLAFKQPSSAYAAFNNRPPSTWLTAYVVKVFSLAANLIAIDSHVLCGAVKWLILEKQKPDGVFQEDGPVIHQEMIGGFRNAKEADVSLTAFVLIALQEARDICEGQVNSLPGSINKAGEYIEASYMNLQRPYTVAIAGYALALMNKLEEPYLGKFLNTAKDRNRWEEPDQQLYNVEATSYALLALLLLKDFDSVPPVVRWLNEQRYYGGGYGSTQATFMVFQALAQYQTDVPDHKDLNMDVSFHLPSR

heart to blood ratio of %ID/g (heart to blood ratio of %ID/g): 1.17
Substance: 99mTechnecium-labelled recombinant complement receptor 2 (SCR1 and SCR2 of human CR2) (domain or fragment)
